Test results reported in patent publication US20070275916A1.

Key:
[1] = molecular target: G-CSFR on mouse bone marrow cells (mouse) (UniProt P40223); assay: radiolabeled G-CSF on bone marrow cells from vavCre+SOCS3-/fl mice, with and without excess unlabeled G-CSF
[2] = molecular target: G-CSFR on mouse bone marrow cells (mouse) (UniProt P40223); assay: radiolabeled G-CSF on bone marrow cells from control vavCre-SOCS3+/fl mice, with and without excess unlabeled G-CSF

UniProt P40223, sequence (P40223 26-837): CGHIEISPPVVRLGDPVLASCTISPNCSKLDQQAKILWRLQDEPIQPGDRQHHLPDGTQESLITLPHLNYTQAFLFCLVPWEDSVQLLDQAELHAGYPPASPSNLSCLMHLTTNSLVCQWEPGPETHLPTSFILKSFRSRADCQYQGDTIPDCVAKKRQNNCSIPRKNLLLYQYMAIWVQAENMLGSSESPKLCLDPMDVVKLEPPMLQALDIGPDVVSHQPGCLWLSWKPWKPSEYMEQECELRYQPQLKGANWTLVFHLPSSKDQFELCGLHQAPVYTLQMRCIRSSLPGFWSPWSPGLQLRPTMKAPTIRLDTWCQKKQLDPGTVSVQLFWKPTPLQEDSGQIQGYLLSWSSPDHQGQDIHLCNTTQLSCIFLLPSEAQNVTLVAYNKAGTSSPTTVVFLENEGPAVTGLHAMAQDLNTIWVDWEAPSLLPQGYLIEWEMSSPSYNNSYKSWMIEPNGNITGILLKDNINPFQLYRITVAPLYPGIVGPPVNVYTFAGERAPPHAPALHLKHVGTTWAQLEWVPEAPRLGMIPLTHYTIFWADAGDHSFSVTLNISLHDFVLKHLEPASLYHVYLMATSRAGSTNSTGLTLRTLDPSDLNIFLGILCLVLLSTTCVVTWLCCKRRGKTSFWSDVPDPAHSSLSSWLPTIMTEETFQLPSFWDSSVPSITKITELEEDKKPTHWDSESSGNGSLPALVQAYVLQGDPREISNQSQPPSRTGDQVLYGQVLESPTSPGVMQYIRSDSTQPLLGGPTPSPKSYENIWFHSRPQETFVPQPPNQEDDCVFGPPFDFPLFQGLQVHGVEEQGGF

Substance: radiolabeled G-CSF (ligand)
- cpm bound [1]: 1700 cpm
- cpm bound [2]: 1880 cpm
